Assay results from patent publication US20030082135A1, “Pathway of RANTES-mediated chemokine synthesis in astrocytes and methods of use therefor” (priority 2001, published 2003).

How the values were obtained:
Raf-1 = Raf-1 kinase activity in lysates of treated astrocytes (phosphorylation of MEK); assay type: cell-based, mouse; conditions: 100 ng/ml RANTES
Procedure: FIG. 12 is a set of bar graphs and a photograph of a Western blot showing that RANTES activated Raf-1 kinase activity in astrocytes. Panel A. Astrocytes were stimulated with 100 ng/ml RANTES for the indicated times and cell lysates were prepared for analysis of Raf-1 activity. Values are presented as relative Raf-1 kinase activity (percent) and represent the mean±S.E.M. of triplicate experiments. Panel B. Astrocytes were stimulated with 100 ng/ml RANTES for the indicated times and cell lysates were prepared for analysis by Western blotting. Blots were stained with anti phospho-Raf (Ser 259) Ab or control anti-Raf Ab. Panel C. […] Astrocytes were pretreated with the indicated doses of Raf-1 inhibitor for 1 h and then stimulated with 100 ng/ml RANTES for 3 h. Total RNA was prepared and assayed by RPA for expression of message for the indicated proinflammatory mediators and the housekeeping genes L32 and GAPDH. Representative data from one of three similar experiments are presented. […]
It is herein shown that RANTES induced Raf-1 kinase activity in 1 to 5 min; Raf-1 kinase activity peaked after 5-10 min (FIG. 12A). […] Increased Raf-1 enzyme activity was accompanied by dephosphorylation of Ser 259, an inhibitory phosphate site detected by a specific anti-Raf (Ser 259) antibody (FIG. 12B).

PKA = PKA activity assay on lysates of treated astrocytes; assay type: cell-based, mouse
Procedure: PKA activity assay. PKA activity was determined using a commercially available kit (Calbiochem, San Diego, Calif.) according to manufacturer's recommendations. Primary mouse astrocytes were grown in 6-well plates and then stimulated as described and lysed in 100 μl buffer (same buffer used for Western blotting) for 30 min. Five μl of the lysates were incubated with 20 μl PKA reaction mixture at 30° C. for 30 min. The reaction was terminated by adding 10 μl stop solution and ^32P radioactivity was counted.

RANTES
time of peak Raf-1 kinase activity (Raf-1): 5 to 10 min
inhibition of PKA activity (PKA; 100 ng/ml RANTES, 20 min): 60%
time of maximal reduction of PKA kinase activity (PKA; after RANTES stimulation): 10 min
